From the supplement of paper PMC10567573

B1: HSP90AB1 (parent)
chain: QVANSAFVERVRKRGFEVVYMTEP
B2: FAM46D (parent)
chain: LELKFVSSLRRQFEFSVDSFQIVL

Variants of: B1
Assay: protein stability index of a GFP-peptide fusion (GPS, HEK-293T) (PSI 1-6); higher = more stable
Settings: c terminus: a fixed tail appended
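Note: lentivirally expressed fusions sorted by FACS into six bins by GFP to DsRed ratio, PSI derived from sequencing read proportions per bin multiplied by bin number.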

Protein stability index: each site, then its substitutions
N4: E 2.81, K 1.96, T 1.78, R 2.18, A 2.02, H 2.6, P 2.03, S 2.21, I 2.64
A6: D 2.67, S 2.61, K 2.32, N 2.11, W 1.55, L 2.09, I 1.68, E 2.86, P 2.81, T 2.69, Y 1.55, C 1.55, H 2.43
E9: W 3.56, M 2.69, V 1.97, P 2.56, G 2.74, R 1.93, N 1.9
V2: M 2.18, A 2.87, Q 2.58, C 1.74, L 2.01, S 2.69, T 2.41
K13: V 1.54, D 2.67, F 1.58, A 2.42, H 1.95, M 1.53, I 1.51, Y 1.75, R 2.43
R10: A 2.18, Q 2.17, G 2.17, F 1.29, M 1.54, V 1.76, C 2.05, D 2.58, P 2.57, Y 1.58
V19: P 2.79, I 2.15, G 2.75, Q 2.33, E 3.43, K 2.69, L 2.09, A 2.83, Y 1.98, F 1.53
G15: K 2.12, H 1.66, V 2.19, L 1.83, D 3.3, R 1.98, M 2.07, Y 1.61
M21: T 3.05, C 2.41, D 2.96, E 3.06, I 1.98, L 2.6, Q 3.1, W 3.09, G 2.65
A3: T 2.93, M 2.26, F 1.87, P 2.69, I 2.06, W 1.91, L 1.85, D 2.11, Y 2.35, S 2.74
E23: G 1.78, V 2.38, T 1.89, W 2.14, Y 1.66, I 1.69, S 2.54, M 2.56, D 2.81, C 2.67, K 2.13, N 1.83, H 1.95, L 1.16, A 2.88
R14: Q 2.1, C 1.36, M 1.6, S 2.26, F 1.92, I 2.56, K 2.54, Y 2.21, D 3.23
Y20: L 2.22, E 3.37, D 3.06, V 3.05, P 2.81, K 2.6, H 3.07, Q 3.41, N 3.62, W 1.96, C 2.99, I 1.78
Q1: L 2.27, T 1.95, C 1.57, I 1.7, V 2.73, Y 3.79, W 1.46, G 2.33, N 2.11
S5: G 2.02, A 2.24, E 2, W 1.97, P 2.44, M 2.2, K 1.71, D 2.59
V8: R 2.07, P 2.48, Y 2.7, H 2.47, N 2.8, I 1.88, A 2.33, T 2.52, C 2.92, Q 2.2
F7: P 3.28, S 2.32, V 2.84, Y 2.38, H 3.24, D 3.56
V11: I 1.79, Q 3.2, A 2.62, T 2.83, P 2.48, S 2.61, Y 2.17, E 3.58, L 1.69
E17: I 2.75, F 4.31, H 1.76, K 2.02, C 2.44, M 2.15, V 1.89, A 1.26, N 2.32, T 1.87, Q 1.51, R 2.19
T22: E 2.56, A 2.89, N 2.51, I 1.81, H 1.91, S 2.7, M 1.91, G 2, V 1.63, L 1.7, W 1.55, Y 1.95, Q 2.54
R12: S 2.87, D 3.5, N 2.63, L 2.1, M 2.01, F 2.13, Q 2.35, E 3.16, W 1.6
V18: D 2.88, L 2.58, S 2.57, E 2.99, W 2.05, A 2.96, Q 2.59, N 3.1, H 2.83
P24: M 2.14, Q 2.52, H 2.1, I 2.03, C 2.2, T 2.48, K 2.44, W 2.09, N 2.32, Y 1.89, G 2.42
F16: L 2.52, E 4.47, T 3.1, N 3.3, W 2.04, P 3.05, V 2.64, D 4.16, R 2.98

Variants of: B2
Assay: as above
Settings: c terminus: a fixed tail appended

Protein stability index: each site, then its substitutions
S19: N 4, G 3.42, K 2.88, M 4.08, W 3.19, I 4.06, P 2.18, V 2.12, L 2.88, Y 2.75, T 2.43, H 3.92, R 2.38
Q21: L 2.24, W 2.89, E 2.47, T 2.68, P 2.71, D 2.69, G 3.02, V 2.67, N 2.75, M 2.78, C 3.58, K 3.44, H 2.63, F 2.74, I 3.59, R 3.02, A 2.85, Y 2.8, S 2.89
I22: L 2.7, P 4.29, N 3.28, C 2.93, D 2.6, Y 3.01, R 2.04, W 2.8, K 1.71, E 2.65, M 3.31, H 1.5, T 2.21, S 2.36, F 3.23, G 3.17, V 3.07, A 2.26
F20: A 2.99, W 3.5, R 2.22, C 2.73, Y 3.11, L 2.59, G 2.96, S 2.55, Q 1.61, E 3.3, K 3.31, N 3.48, D 2.94, H 2.62, P 3.04, T 1.62, I 3.44, M 2.58
L24: C 3.35, W 5.02, F 3.74, R 2.73, Q 2.27, E 3.4, M 2.73, K 2.35, P 2.58, I 3.26, D 1.78, H 4.63, S 3.63, V 1.77, N 2.39, A 2.78, Y 2.7, G 2.6
V23: R 2.76, A 3.08, T 2.62, P 2.14, N 3.11, Q 2.29, F 1.98, I 2.6, E 4.1, Y 3.37, S 2.88, G 1.94, H 2.67, W 3.15, L 2.9
